The results in this text go back to patent US20240254224A1 (UCB, published 2024).

Holding throughout (assay): SPR (Biacore T200), TREM1 ECD over antibody captured by anti-human Fc
(In general: Surface plasmon resonance follows binding to a sensor surface in real time, without labels.)

Test [1] concerns the target T1, marmoset TREM1 ECD (in house, His tagged) (marmoset, UniProt A0A8I3WDM5 21-206).
T1 construct: extracellular domain
T1 sequence: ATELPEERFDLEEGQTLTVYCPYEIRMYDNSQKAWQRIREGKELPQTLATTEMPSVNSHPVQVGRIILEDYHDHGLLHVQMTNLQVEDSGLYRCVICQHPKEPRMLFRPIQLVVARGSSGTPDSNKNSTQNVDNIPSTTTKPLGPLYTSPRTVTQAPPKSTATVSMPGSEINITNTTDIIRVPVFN
How it is done: (§1) The species tested were human, cynomolgus, rhesus, marmoset, rat, mouse, dog and pig.
(§2) TREM1 ECD analyte (in house, His tagged) was injected at 3-fold serial dilutions in HBS-EP+ running buffer (GE Healthcare), top concentrations are shown in Table 15, and three-fold serial dilutions were performed to a bottom concentration of 2 nM. Buffer blank injections were included to subtract instrument noise and drift.

Test [2] deals with T2, mouse TREM1 ECD (in house, His tagged) (mouse, UniProt Q9JKE2 21-202).
T2 construct: extracellular domain
T2 sequence (looked up): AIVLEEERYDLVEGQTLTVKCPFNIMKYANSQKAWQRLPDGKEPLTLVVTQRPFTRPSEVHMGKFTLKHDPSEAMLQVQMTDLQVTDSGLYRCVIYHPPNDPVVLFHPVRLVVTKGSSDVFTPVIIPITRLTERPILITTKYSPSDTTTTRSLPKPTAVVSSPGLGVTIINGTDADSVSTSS
The procedure: as §1, §2

For test [3], the target named is T3, pig TREM1 ECD (in house, His tagged) (pig, UniProt Q6TYI6 21-210).
T3 construct: extracellular domain
T3 sequence (looked up): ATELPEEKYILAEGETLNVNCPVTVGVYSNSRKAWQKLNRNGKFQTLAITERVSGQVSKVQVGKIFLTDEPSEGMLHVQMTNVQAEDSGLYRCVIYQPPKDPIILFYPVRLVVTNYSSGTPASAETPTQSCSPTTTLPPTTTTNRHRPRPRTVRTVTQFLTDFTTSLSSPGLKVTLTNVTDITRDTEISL
The procedure:
as §1, §2

B1: 12172 gL2gH11 hIgG4P (antibody)
heavy: not shown
light: DIQLTQSPSFLSASVGDRVTITCQASQNIGSDLAWYQQKPGKAPKLLIYKAATLASGVPSRFSGSGSGTEFTLTISSLQPEDFATYYCQQYYYGSAGADTDTFGGGTKVEIKRTVAAPSVFIFPPSDEQLKSGTASVVCLLNNFYPREAKVQWKVDNALQSGNSQESVTEQDSKDSTYSLSSTLTLSKADYEKHKVYACEVTHQGLSSPVTKSFNRGEC
notes: Humanised IgG4P, human kappa; also called 12172gL2gH11 IgG4P
Turning to B1, the results for the binding result in test [1], in test [2] and in test [3] were “no binding (tested: 510 nM)”, “no binding (tested: 520 nM)” and “no binding (tested: 490 nM)”, respectively.
